Consider three substances from paper PMC9452904.

The target in assay [1] is ribosome-nascent chain complex with the HA-tagged GatY(1-153) nascent chain (E. coli) (UniProt P0C8J6). Kind of assay: fluorescence correlation spectroscopy (FCS); endpoint: ~2 ug truncated mRNA and 100 nM labeled TF in PUREfrex solution, 5-15 min at 37 C, then measured; two-component fit with the fast component fixed to free TF.
Assay [2] concerns the target ribosome-nascent chain complex with the HA-tagged GatY(1-284) nascent chain (E. coli) (UniProt P0C8J6). The assay is described as above.
The next assay has as its target vacant ribosome. Kind of assay: fluorescence correlation spectroscopy (FCS); 100 nM Alexa488-labeled TF with increasing ribosome concentrations in HKM buffer (25 mM Hepes-KOH pH 7.4, 100 mM KCl, 5 mM MgCl2); ratio of ribosome-bound TF from a two-component fit, Kd from a quadratic fit.
Assay [3] addresses ribosome-nascent chain complex with the HA-tagged GatY(1-153) nascent chain on the TMR-labeled Halo-S2 ribosome (E. coli | not stated) (UniProt P0C8J6). The assay is described as follows: single-molecule total internal reflection fluorescence microscopy (TIRFM); RNCs held on a PEG/biotin-PEG slide through neutravidin and anti-HA biotin; 50 nM Alexa647-labeled TF, 50 nM TMR-labeled Halo-S2 ribosome; 10 frames/s for 150 s; residence times fitted.

For assay [4], the target named is ribosome-nascent chain complex with the HA-tagged GatY(1-284) nascent chain on the TMR-labeled Halo-S2 ribosome (E. coli | not stated) (UniProt P0C8J6). The assay is described as above.
The target in assay [5] is Trigger factor (Escherichia coli) (UniProt P0A850). Conditions: cited from earlier work.

For “Alexa488-labeled trigger factor TF-R14C (from UniProt P0A850 1-432) (natural protein)”, the percent of TF in the slow component in assay [1] and in assay [2] was 90% in each case. For the same substance, the dissociation constant Kd with vacant ribosome was determined as 2240 nM.

With “Alexa647-labeled TF-R14C (from UniProt P0A850 1-432) (natural protein)”, the half-life of the residence time (fast component) in assay [3] was 2.7 s. The half-life of the residence time (slow fraction) in assay [4] was 9.8 s.

Trigger factor (from UniProt P0A850): the Kd in assay [5] is 1500 nM.
